From patent publication US20220040319A1 (Regeneron, published 2022)
Where two headings read alike, the source gives them in different places.

Experiments:
human MET on cells [1] = target: T1, human MET on cells (human, UniProt P08581 25-1390); assay: flow cytometry, 10 µg/ml antibody on SNU-5 cells, Alexa647 anti-human secondary
T1 construct: whole, on cells; also called c-Met; HGFR
Method: (§1) After one additional wash with FACS buffer, samples were fixed with Cytofix (BD Biosciences, #554655), filtered with FACS buffer and run on an iQue flow cytometer (Intelicyte). Mean fluorescence intensity (MFI) data was determined using FlowJo software (FlowJo LLC).

human MET on cells [2] = target: T1, human MET on cells; assay: flow cytometry, 10 µg/ml antibody on Hs746t cells, Alexa647 anti-human secondary
Method: as §1

human MET on cells [3] = target: T1, human MET on cells; assay: cell-based or functional assay
human MET on cells [4] = target: T1, human MET on cells; assay: flow cytometry, 10 µg/ml antibody on A549 cells, Alexa647 anti-human secondary
Method: as §1

human MET on cells [5] = target: T1, human MET on cells; assay: flow cytometry, 10 µg/ml antibody on MKN-45 cells, Alexa647 anti-human secondary
Method: as §1

human MET on cells [6] = target: T1, human MET on cells; assay: flow cytometry, 10 µg/ml antibody on U87MG cells, Alexa647 anti-human secondary
Method: as §1

human MET on cells [7] = target: T1, human MET on cells; assay: flow cytometry, 10 µg/ml antibody on EBC-1 cells, Alexa647 anti-human secondary
Method: as §1

human MET on cells [8] = target: T1, human MET on cells; assay: cell-based or functional assay; remark: listed apart in the source
human MET on cells [9] = target: T1, human MET on cells; assay: cell-based or functional assay; remark: listed apart in the source
human MET on cells [10] = target: T1, human MET on cells; assay: flow cytometry, 10 µg/ml antibody on MDA-MB-231 cells, Alexa647 anti-human secondary
Method: as §1

[11] = target: T2, MET (c-Met, hepatocyte growth factor receptor) on cells (human, UniProt P08581 25-1390); assay: cell-based or functional assay
T2 sequence (P08581 25-1390 limits assumed, form in doubt): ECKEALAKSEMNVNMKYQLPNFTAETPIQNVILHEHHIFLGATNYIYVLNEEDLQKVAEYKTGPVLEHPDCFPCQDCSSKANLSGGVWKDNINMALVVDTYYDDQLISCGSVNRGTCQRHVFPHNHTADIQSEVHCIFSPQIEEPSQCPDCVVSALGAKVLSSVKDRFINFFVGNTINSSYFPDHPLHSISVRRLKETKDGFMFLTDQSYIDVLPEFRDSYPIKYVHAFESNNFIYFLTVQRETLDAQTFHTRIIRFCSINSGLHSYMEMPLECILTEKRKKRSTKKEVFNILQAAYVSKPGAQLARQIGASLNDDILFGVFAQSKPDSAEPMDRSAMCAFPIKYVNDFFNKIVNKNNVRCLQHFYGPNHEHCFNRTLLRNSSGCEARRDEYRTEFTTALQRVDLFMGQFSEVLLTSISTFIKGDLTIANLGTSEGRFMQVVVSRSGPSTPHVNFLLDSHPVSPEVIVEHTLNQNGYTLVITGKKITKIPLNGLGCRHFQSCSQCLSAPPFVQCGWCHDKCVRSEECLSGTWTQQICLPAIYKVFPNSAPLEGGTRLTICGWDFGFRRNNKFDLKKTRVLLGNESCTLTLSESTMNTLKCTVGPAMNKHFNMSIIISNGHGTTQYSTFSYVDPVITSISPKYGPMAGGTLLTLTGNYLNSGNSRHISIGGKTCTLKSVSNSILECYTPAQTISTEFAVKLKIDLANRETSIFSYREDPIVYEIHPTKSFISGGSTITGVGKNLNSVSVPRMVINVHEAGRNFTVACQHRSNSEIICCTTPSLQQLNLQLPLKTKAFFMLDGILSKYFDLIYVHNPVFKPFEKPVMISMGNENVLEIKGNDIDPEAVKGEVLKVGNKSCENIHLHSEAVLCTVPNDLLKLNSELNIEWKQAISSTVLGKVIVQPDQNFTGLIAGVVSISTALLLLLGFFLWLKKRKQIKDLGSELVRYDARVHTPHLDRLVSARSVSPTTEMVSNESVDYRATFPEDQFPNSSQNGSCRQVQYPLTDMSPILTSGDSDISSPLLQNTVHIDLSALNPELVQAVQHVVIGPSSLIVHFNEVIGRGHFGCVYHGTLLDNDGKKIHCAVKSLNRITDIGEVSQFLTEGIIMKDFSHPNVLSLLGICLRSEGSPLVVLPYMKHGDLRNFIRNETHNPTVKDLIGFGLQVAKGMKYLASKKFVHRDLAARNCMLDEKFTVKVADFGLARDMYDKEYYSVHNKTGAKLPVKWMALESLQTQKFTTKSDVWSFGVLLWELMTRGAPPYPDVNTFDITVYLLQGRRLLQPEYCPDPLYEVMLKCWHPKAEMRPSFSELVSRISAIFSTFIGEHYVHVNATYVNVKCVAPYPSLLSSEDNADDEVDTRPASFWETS

[12] = target: T3, hMet.mmh (human MET extracellular domain with C-terminal myc-myc-hexahistidine tag) (human, UniProt P08581 309-914; P08581 27-307); assay: SPR 37C, antibody captured
T3 construct: soluble monomeric MET; also called monomeric human MET
T3 sequence (P08581 other isoform, or with tags, fused parts or gaps limits assumed, chain 1 of 2): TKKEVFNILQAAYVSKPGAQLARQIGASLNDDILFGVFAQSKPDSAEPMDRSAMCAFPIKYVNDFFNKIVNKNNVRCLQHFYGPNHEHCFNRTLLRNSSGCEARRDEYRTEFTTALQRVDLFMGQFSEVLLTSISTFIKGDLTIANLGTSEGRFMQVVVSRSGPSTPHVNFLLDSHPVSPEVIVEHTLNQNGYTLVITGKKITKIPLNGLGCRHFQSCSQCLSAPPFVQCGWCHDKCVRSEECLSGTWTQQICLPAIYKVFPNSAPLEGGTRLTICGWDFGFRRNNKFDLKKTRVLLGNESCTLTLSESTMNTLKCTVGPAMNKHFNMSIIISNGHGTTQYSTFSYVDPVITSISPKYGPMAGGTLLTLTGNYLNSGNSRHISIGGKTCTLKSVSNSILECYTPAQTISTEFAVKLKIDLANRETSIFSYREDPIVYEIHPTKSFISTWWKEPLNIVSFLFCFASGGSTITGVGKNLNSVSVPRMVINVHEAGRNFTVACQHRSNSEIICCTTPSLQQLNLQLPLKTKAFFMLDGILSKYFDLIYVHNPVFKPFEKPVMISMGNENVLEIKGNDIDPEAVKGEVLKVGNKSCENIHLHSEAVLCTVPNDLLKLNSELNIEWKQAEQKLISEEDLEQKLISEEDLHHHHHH
T3 sequence (P08581 27-307 limits assumed, chain 2 of 2): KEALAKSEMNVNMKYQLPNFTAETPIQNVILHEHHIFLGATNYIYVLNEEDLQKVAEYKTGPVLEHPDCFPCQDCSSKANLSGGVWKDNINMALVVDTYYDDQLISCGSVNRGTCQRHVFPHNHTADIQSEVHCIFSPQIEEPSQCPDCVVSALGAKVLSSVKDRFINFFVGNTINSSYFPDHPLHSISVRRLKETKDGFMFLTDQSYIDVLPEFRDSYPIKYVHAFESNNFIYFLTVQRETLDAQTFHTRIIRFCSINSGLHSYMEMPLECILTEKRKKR
Method: (§2) The anti-Met antibodies tested in this example were bivalent monospecific binders of MET.
(§3) Kinetic association (kₐ) and dissociation (kd) rate constants were determined by fitting the real-time sensorgrams to a 1:1 binding model using Scrubber 2.0c curve fitting software. Binding dissociation equilibrium constant (KD) and dissociative half-life (t1/2) were calculated from the kinetic rate constants as: […]

[13] = target: T4, hMET.mFc (dimeric human MET) (human, UniProt P08581 27-307); assay: SPR 37C, antibody captured
T4 construct: soluble dimeric MET protein
T4 sequence (P08581 other isoform, or with tags, fused parts or gaps limits assumed, chain 1 of 2): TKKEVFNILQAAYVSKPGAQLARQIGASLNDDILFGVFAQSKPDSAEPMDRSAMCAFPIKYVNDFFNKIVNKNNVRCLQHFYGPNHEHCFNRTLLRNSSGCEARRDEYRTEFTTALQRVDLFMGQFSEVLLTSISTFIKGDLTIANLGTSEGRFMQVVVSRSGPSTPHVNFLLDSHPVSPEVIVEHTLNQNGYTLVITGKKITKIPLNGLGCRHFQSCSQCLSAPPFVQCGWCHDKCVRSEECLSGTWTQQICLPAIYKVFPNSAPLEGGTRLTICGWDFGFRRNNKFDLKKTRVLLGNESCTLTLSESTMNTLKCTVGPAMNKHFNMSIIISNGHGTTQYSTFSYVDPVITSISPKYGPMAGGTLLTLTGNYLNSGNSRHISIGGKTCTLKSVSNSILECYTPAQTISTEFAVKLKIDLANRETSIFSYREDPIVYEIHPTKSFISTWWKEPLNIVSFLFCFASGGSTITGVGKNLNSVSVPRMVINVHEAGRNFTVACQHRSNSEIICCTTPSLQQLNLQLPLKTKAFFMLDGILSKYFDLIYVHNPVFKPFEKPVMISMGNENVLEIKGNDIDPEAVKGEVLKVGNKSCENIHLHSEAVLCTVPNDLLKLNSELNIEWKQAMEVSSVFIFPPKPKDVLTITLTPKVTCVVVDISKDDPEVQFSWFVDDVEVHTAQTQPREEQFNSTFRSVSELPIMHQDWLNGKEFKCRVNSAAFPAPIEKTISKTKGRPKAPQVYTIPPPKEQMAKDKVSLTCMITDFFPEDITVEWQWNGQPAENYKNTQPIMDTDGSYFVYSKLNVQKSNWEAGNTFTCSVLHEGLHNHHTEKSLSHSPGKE
T4 sequence (P08581 27-307 limits assumed, chain 2 of 2): as the sequence (P08581 27-307 limits assumed, chain 2 of 2) above
Method: as §2, §3

[14] = target: T3, hMet.mmh (human MET extracellular …); assay: SPR 37C, antibody captured; remark: listed apart in the source
Method: (§4) Kinetic association (kₐ) and dissociation (kd) rate constants were determined as described in Example 3.

[15] = target: T2, MET (c-Met, hepatocyte growth factor …); assay: cell-based or functional assay; remark: listed apart in the source
[16] = target: T3, hMet.mmh (human MET extracellular …); assay: SPR 37C, antibody captured; remark: listed apart in the source
Method: as §4

T1 sequence (P08581 25-1390 limits assumed, form in doubt): as the sequence (P08581 25-1390 limits assumed, form in doubt) above

B1: H4H14635D (bispecific antibody, human IgG4, V domains shown)
VH 1: QVQLVESGGGVVQPGRSLRVSCVVSGFTFSSFGMHWVRQAPDKGLEWVAVIWYDGSNDYYSDSVKGRFTISRDNSKNTLFLQMNRLRAEDTAVYYCARANNWNRFDAFDLWGQGTMVTVSS
VH 2: EVQLVESGGGLVQPGGSLRLSCAASGFIVTTNYMTWLRQAPGKGLEWVSLIYSSGHTYYADSVKGRFTISRHNSKNTLYLQMDSLRAEDTAVYYCASAFAADVFDIWGQGTMVTVSS
VL: not shown
notes: MET x MET bispecific, human IgG4; also called No. 42
B1 was tested, and the “FACS Binding (MFI Fold Above Isotype Control)” value (human MET on cells [1]) was 477 fold above isotype control, the “FACS Binding (MFI Fold Above Isotype Control)” value (human MET on cells [2]) was 39 fold above isotype control and the “Relative MET Level, SNU5 cells, 18 hrs” value (human MET on cells [3]) was 0.27 relative to control (hFc). For the same binder, the “FACS Binding (MFI Fold Above Isotype Control)” value (human MET on cells [4]) was 12 fold above isotype control, the “FACS Binding (MFI Fold Above Isotype Control)” value (human MET on cells [5]) was 183 fold above isotype control and the “FACS Binding (MFI Fold Above Isotype Control)” value (human MET on cells [6]) was 18 fold above isotype control. The “FACS Binding (MFI Fold Above Isotype Control)” value (human MET on cells [7]) was 263 fold above isotype control, the “% Inhibition, HEK293/SRE-Luc Blocking Activity (HGF, 1 h mAb pre-bind)” value (human MET on cells [8]) was 85% and the “EC50, Ligand (HGF)-Independent HEK293/SRE-Luc Activation” value (human MET on cells [8]) was 1.4 nM. The “Fold Response, Ligand (HGF)-Independent HEK293/SRE-Luc Activation” value (human MET on cells [8]) was 2.2 fold, the “IC50, HEK293/SRE-Luc Blocking Activity (HGF, 1 h mAb pre-bind)” value (human MET on cells [8]) was 0.19 nM and the “IC50, 6-day in vitro cytotoxicity, A549” value (human MET on cells [9]) was > 100 nM. For the same binder, the “IC50, 6-day in vitro cytotoxicity, EBC-1” value (human MET on cells [9]) was > 100 nM, the “IC50, 6-day in vitro cytotoxicity, Hs746t” value (human MET on cells [9]) was > 100 nM and the “Max % Kill, 6-day in vitro cytotoxicity, A549” value (human MET on cells [9]) was 0%. For the same binder, the “Max % Kill, 6-day in vitro cytotoxicity, EBC-1” value (human MET on cells [9]) was 11%, the “Max % Kill, 6-day in vitro cytotoxicity, Hs746t” value (human MET on cells [9]) was 7% and the “FACS Binding (MFI Fold Above Isotype Control)” value (human MET on cells [10]) was 11 fold above isotype control.

B2: H4H13312P2 (antibody, human IgG4, V domains shown)
VH: EVQLVESGGGLVQPGGSLRLSCAASGFIVTTNYMTWLRQAPGKGLEWVSLIYSSGHTYYADSVKGRFTISRHNSKNTLYLQMDSLRAEDTAVYYCASAFAADVFDIWGQGTMVTVSS
VL: not shown
notes: human IgG4 Fc (H4H), bivalent monospecific; also called parental antibody 2; M2
In the case of B2, the “EC50 (read off the curve); HGF-independent SRE-driven luciferase signal in HEK293T cells” value [11] is reported as ~0.5 nM, the Kd [12] is reported as 227 nM and the T½ [12] is reported as 0.7 min. It also gave a Kd [13] of 2.79 nM, a T½ [13] of 6.7 min and a T½ [14] of 1.4 min. For the same binder, the “IC50 (read off the curve); blocking of HGF-dependent SRE-driven luciferase signal in HEK293T cells” value [15] was ~0.4 nM.

B3: H4H14637D (bispecific antibody, human IgG4, V domains shown)
VH 1: QVQLVESGGGVVQPGTSLRLSCVASGFTFRNFGMHWVRQAPGKGLEWVANIWFDGSNENYVESIQGRFTISRDNSKNTLNLQMNSLRAEDSAVYYCVREGILGTTNPYDAFDVWGQGTMVTVSS
VH 2: EVQLVESGGGLVQPGGSLRLSCAASGFIVTTNYMTWLRQAPGKGLEWVSLIYSSGHTYYADSVKGRFTISRHNSKNTLYLQMDSLRAEDTAVYYCASAFAADVFDIWGQGTMVTVSS
VL: not shown
With B3 the “Relative MET Level, SNU5 cells, 18 hrs” value (human MET on cells [3]) was 0.49 relative to control (hFc), the “% Inhibition, HEK293/SRE-Luc Blocking Activity (HGF, 1 h mAb pre-bind)” value (human MET on cells [8]) was 73% and the “EC50, Ligand (HGF)-Independent HEK293/SRE-Luc Activation” value (human MET on cells [8]) was 4.1 nM. For the same binder, the “Fold Response, Ligand (HGF)-Independent HEK293/SRE-Luc Activation” value (human MET on cells [8]) was 2.1 fold.

B4: H4H14639D (bispecific antibody, human IgG4, V domains shown)
VH 1: EVQLVESGGGLVQPGTSLRLSCAASGFTFDDYAMHWVRQAPGKGLEWVSGITWNSYNIDYADSVKGRFTISRDNAKNSLYLQMNSLRAEDTALYYCAKDDDYSNYVYFDYWGQGTLVTVSS
VH 2: EVQLVESGGGLVQPGGSLRLSCAASGFIVTTNYMTWLRQAPGKGLEWVSLIYSSGHTYYADSVKGRFTISRHNSKNTLYLQMDSLRAEDTAVYYCASAFAADVFDIWGQGTMVTVSS
VL: not shown
notes: MET x MET bispecific, expressed as human IgG4; also called bispecific antibody No. 122; MET×MET bispecific antibody
B4 gave a T½ [16] of 70.8 min, a koff [16] of 0.000163 s⁻¹ and a T½ [14] of 70.8 min. The koff [14] was 0.000163 s⁻¹ and the “IC50 (read off the curve); blocking of HGF-dependent SRE-driven luciferase signal in HEK293T cells” value [15] was ~0.4 nM.

B5: H4H14634D (bispecific antibody, human IgG4, V domains shown)
VH 1: QVQLQESGPGLVKPSETLSLTCTVSGDSISSYYWTWIRQPPGKGLEWIGYIFYRGGTTYNPSLKSRVTISVDTSKNQFSLKLRSVTAADTAVYYCARGDDLLVVTSVYWYIDLWGRGTLVTVSS
VH 2: EVQLVESGGGLVQPGGSLRLSCAASGFIVTTNYMTWLRQAPGKGLEWVSLIYSSGHTYYADSVKGRFTISRHNSKNTLYLQMDSLRAEDTAVYYCASAFAADVFDIWGQGTMVTVSS
VL: not shown
B5 was tested, and the “Relative MET Level, SNU5 cells, 18 hrs” value (human MET on cells [3]) was 0.45 relative to control (hFc), the “% Inhibition, HEK293/SRE-Luc Blocking Activity (HGF, 1 h mAb pre-bind)” value (human MET on cells [8]) was 85% and the “EC50, Ligand (HGF)-Independent HEK293/SRE-Luc Activation” value (human MET on cells [8]) was 0.09 nM. For the same binder, the “Fold Response, Ligand (HGF)-Independent HEK293/SRE-Luc Activation” value (human MET on cells [8]) was 3.4 fold and the “IC50, HEK293/SRE-Luc Blocking Activity (HGF, 1 h mAb pre-bind)” value (human MET on cells [8]) was 0.0097 nM.
